Key:
[1] = Western densitometry, % in media, 48 h; details: control: wild type
[2] = secreted protein in media at 37 °C, Western; details: glycan lost; control: wild type
[3] = Western blot of conditioned media; details: control: untreated
[4] = AHA pulse-chase, intracellular protein; details: glycan lost; control: wild type
[5] = Western densitometry, % in media; details: glycan gained; control: wild type

| Protein | expression_or_secretion, other: percent of total protein in media ([1]; glycan lost) | degradation_or_half_life, half_life [2] | also measured |
| --- | --- | --- | --- |
| human Rspo3: N137Q (protein) parent chain: MHLRLISWLFIILNFMEYIGSQNASRGRRQRRMHPNVSQGCQGGCATCSDYNGCLSCKPRLFFALERIGMKQIGVCLSSCPSGYYGTRYPDINKCTKCKADCDTCFNKNFCTKCKSGFYLHLGKCLDNCPEGLEANNHTMECVSIVHCEVSEWNPWSPCTKKGKTCGFKRGTETRVREIIQHPSAKGNLCPPTNETRKCTVQRKKCQKGERGKKGRERKRKKPNKGESKEAIPDSKSLESSKEIPEQRENKQQQKKRKVQDKQKSVSVSTVH | decreases, 44% vs 67% | no change, >48 vs >48 |  |
| human Rspo3: tunicamycin (protein) parent chain: MHLRLISWLFIILNFMEYIGSQNASRGRRQRRMHPNVSQGCQGGCATCSDYNGCLSCKPRLFFALERIGMKQIGVCLSSCPSGYYGTRYPDINKCTKCKADCDTCFNKNFCTKCKSGFYLHLGKCLDNCPEGLEANNHTMECVSIVHCEVSEWNPWSPCTKKGKTCGFKRGTETRVREIIQHPSAKGNLCPPTNETRKCTVQRKKCQKGERGKKGRERKRKKPNKGESKEAIPDSKSLESSKEIPEQRENKQQQKKRKVQDKQKSVSVSTVH |  |  | expression_or_secretion ([3]; glycan lost): decreases |
| human Rspo2: N160Q (protein) parent chain: MQFRLFSFALIILNCMDYSHCQGNRWRRSKRASYVSNPICKGCLSCSKDNGCSRCQQKLFFFLRREGMRQYGECLHSCPSGYYGHRAPDMNRCARCRIENCDSCFSKDFCTKCKVGFYLHRGRCFDECPDGFAPLEETMECVEGCEVGHWSEWGTCSRNNRTCGFKWGLETRTRQIVKKPVKDTILCPTIAESRRCKMTMRHCPGGKRTPKAKEKRNKKKKRKLIERAQEQHSVFLATDRANQ | decreases, 18% vs 34% | decreases, 12 vs 36 |  |
| human Rspo2: E136N (protein) parent chain: MQFRLFSFALIILNCMDYSHCQGNRWRRSKRASYVSNPICKGCLSCSKDNGCSRCQQKLFFFLRREGMRQYGECLHSCPSGYYGHRAPDMNRCARCRIENCDSCFSKDFCTKCKVGFYLHRGRCFDECPDGFAPLEETMECVEGCEVGHWSEWGTCSRNNRTCGFKWGLETRTRQIVKKPVKDTILCPTIAESRRCKMTMRHCPGGKRTPKAKEKRNKKKKRKLIERAQEQHSVFLATDRANQ |  |  | expression_or_secretion, other: percent of total protein in media ([1]; glycan gained): increases, two-fold vs 34% |
| human Rspo1 (R-spondin 1): N137Q (protein) parent chain: MRLGLCVVALVLSWTHLTISSRGIKGKRQRRISAEGSQACAKGCELCSEVNGCLKCSPKLFILLERNDIRQVGVCLPSCPPGYFDARNPDMNKCIKCKIEHCEACFSHNFCTKCKEGLYLHKGRCYPACPEGSSAANGTMECSSPAQCEMSEWSPWGPCSKKQQLCGFRRGSEERTRRVLHAPVGDHAACSDTKETRRCTVRRVPCPEGQKRRKGGQGRRENANRNLARKESKEAGAGSRRRKGQQQQQQQGTVGPLTSAGPA | decreases, 32% vs 56% | no change, ~48 vs >48 | degradation_or_half_life, half_life [4]: decreases, 0.6 vs 0.9 |
| human Rspo1 (R-spondin 1): tunicamycin (protein) parent chain: MRLGLCVVALVLSWTHLTISSRGIKGKRQRRISAEGSQACAKGCELCSEVNGCLKCSPKLFILLERNDIRQVGVCLPSCPPGYFDARNPDMNKCIKCKIEHCEACFSHNFCTKCKEGLYLHKGRCYPACPEGSSAANGTMECSSPAQCEMSEWSPWGPCSKKQQLCGFRRGSEERTRRVLHAPVGDHAACSDTKETRRCTVRRVPCPEGQKRRKGGQGRRENANRNLARKESKEAGAGSRRRKGQQQQQQQGTVGPLTSAGPA |  |  | expression_or_secretion ([3]; glycan lost): decreases |
| human Rspo1 (R-spondin 1): Q163N/L165T (protein) parent chain: MRLGLCVVALVLSWTHLTISSRGIKGKRQRRISAEGSQACAKGCELCSEVNGCLKCSPKLFILLERNDIRQVGVCLPSCPPGYFDARNPDMNKCIKCKIEHCEACFSHNFCTKCKEGLYLHKGRCYPACPEGSSAANGTMECSSPAQCEMSEWSPWGPCSKKQQLCGFRRGSEERTRRVLHAPVGDHAACSDTKETRRCTVRRVPCPEGQKRRKGGQGRRENANRNLARKESKEAGAGSRRRKGQQQQQQQGTVGPLTSAGPA |  |  | expression_or_secretion, fold_change [5]: increases |
| human Rspo1 (R-spondin 1): castanospermine (protein) parent chain: MRLGLCVVALVLSWTHLTISSRGIKGKRQRRISAEGSQACAKGCELCSEVNGCLKCSPKLFILLERNDIRQVGVCLPSCPPGYFDARNPDMNKCIKCKIEHCEACFSHNFCTKCKEGLYLHKGRCYPACPEGSSAANGTMECSSPAQCEMSEWSPWGPCSKKQQLCGFRRGSEERTRRVLHAPVGDHAACSDTKETRRCTVRRVPCPEGQKRRKGGQGRRENANRNLARKESKEAGAGSRRRKGQQQQQQQGTVGPLTSAGPA |  |  | expression_or_secretion ([3]; glycan changed form): decreases |

Reference: publication PMC4926470
